From a protein production outcome set (Wang et al. 2014)

Experiment: label from the status in PepcDB records

Sequence | protein production
MLDCIVVGAGPAGGSAAYHLARRDRQVLLLEQAQLPRQKACAGGVSPQVARWFDCDLRSVVDHGVDRLRFTWKLGDPVEAELPSEEPFWMVRRDRFDHFLVEQAANLGARIEDGAAVTAVSAEGDGWLVTVGDRAYRSRTLIAADGARGPLAQWLGFPSQKRRYAQACELDVPLPARPDSTAHFEFGLVRNGYIWVFPKSDGYSIGIGTFRGNDATDFRGLLETYLAGFGVSADLDRIVPHPLCVWDGSQPLHRGSALLVGEAASLTDPFTAEGIRPALLSGMRAAEAIDRAIAGDRNALAGYSRTIQQEWGDSMAWAKRISSVFYRVPNLGYQIGIKRPTAPQRMAQILVGELDYSDIATRVIRRLTTGFLPGMR | failed
MLDHFGSDPVFSPEQVLENRGRVAIFIDGSNLFYAALQLGIEIDYSKLLYRLTGGSRLLRSFFYTGVDRANEKQQGFLLWMRRNGYRVIAKDLVQLPDGSKKANLDVEIAVDMMALVGSYDTAVLVSGDGDLAYAVDAVSYRGARVEVVSLRSMTSDSLINVADRYIDLEQIQTDIQKLHRGQFSEPRLMEDRGGGTIELPSHE | failed
MLDLFGYKRRKTSVAQIGDTPLGGDFPIRIQSMANVSTMDTQASVDQAARIIDAGADYVRFTAQGVREAVNLQHIHAGLCRLGYHIPLVADIHFSPKAAEEALLHVEKVRINPGNFVEMKSGGNLTEEEAFDLGHKAVRERFGSFVEDAKRLGRAIRIGVNHGSLSERMLTRYGDTAEGMVQSCMEYLDVCHEHEFDDVVISMKASNTLVMTAAVRLLVERMDAADMHYPLHIGVTEAGDGEDGRIKSAVGIGSLLADGIGDTIRVSLSEDPEHEIPVARKLLAYIEKRNGHPSVAVPQPDRYDRDKLRRQETYAVGDFIGSKHIPIVISDRRQGDDHFDTELLPDIVLGADGRYYREDMLLENIVFRSIRQDDLTDDCLQTIEAISDTVIILESVGINPVAEWRAMLHRLELAGCRCPVILHRRYDCTDLEDLQLQASADMGAILLEGRGNGLMITADKLPSVAVNHLAFGILQATR | failed
MLDNAIPQGFEDAVELRRKNRETVVKYMNTKGQDRLRRHELFVEDGCGGLWTTDTGSPIVIRGKDKLAEHAVWSLKCFPDWEWYNIKVFETDDPNHFWVECDGHGKILFPGYPEGYYENHFLHSFELDDGKIKRNREFMNVFQQLRALSIPVPQIKREGIPT | not failed
MLDPARSYDLIGDVHGCALTLEHLLDRLGYHKQAGVWRHPSRMAVFLGDIIDRGPRIRESLHIVHDMVEAGQALCIMGNHEFNALGWSTPAAEGSGKQFVREHTPRHARLIHETLTQFEQHPGDWHDFLQWFYELPLFVDAGRFRVVHACWDAGLIAPLRQQYPNGCIDREFLQSAAVPDSFACTAFDRLLRGTDMRLPHGLTMTSGDGLTRAFFRTKFWEDDPQTYGDIVFQPDALPEPVARTPLSPAEKNSLLRYGAEEPMLFVGHYWRSGKPAPIRPNLACLDYSAVLYGKLAAYRLDQETRLDPNKFVWVDVERPEVVRLEHHHHHH | failed
MLDPHSRMPLYHQIESHLREVIRSGKWQAGEAIPPERLLIEQYGVSRITIRQALANLVAAGLLYRKHGRGTFVAGAKERPITESLANLTGHLEELQLRGLDPRVRVLALETRPMIAEVAEALQRSPGAEGWYLYRIVTVEQQPLMLSTVWLPCDLGVELNEELLKQHGMALLLTHNGIAPLRGSQRIGAMSAGPEEARLLGVRAGEAVLRVSRVIHGAADRPLVWFRTLYRSDRYEYEVELKRGRPHA | failed
MLDRLLGRVHDTKHAAPILRGYLWWGLLLRAVLLLALGTLLVVEGNVLAEWLLTVRPPALPQEDVEELTAVSYTVIVVLLMVGTGARWQLLRRLEAAEAVPESAPSSAEEAPPLGR | failed
MLDSFKSALQQFAASIRFKFKSLRSYKYVPQIDSRDCGVAALASIAKYYGSDYSLAHLRELAKTSKEGTTALGIVEAAKKMKFETRAIKADMSLFDVEDIPYPFIVHIVKDGKLQHYYVVYGQEKEKVIIGDPDPTVKIATPVQIAICRRMDRCCYFSGT | failed
MLDSHLHPRLKPLLNAVAGALDRPGISPDGLTLVGFAIGVLALPFLALGWYGAALAAILLNRLLDGLDGALARRRGLTDAGGFLDIALDFLFYALVPFGFILADPLNNALAGGWLLFAFIGTGSSFLAFAALAARHQIANPGYAHKSLYYLGGLTEGTETILLFVLGCLFPAHFAWLAWLFGALCWLTTATRICSGYQTLKRVTTTA | failed
MLDVAIIGGGPAGLSAGLYATRGGLKNVVMFEKGMPGGQITSSSEIENYPGVAQVMDGISFMAPWSEQCMRFGLKHEMVGVEQILKNSDGSFTIKLEGGKTELAKAVIVCTGSAPKKAGFKGEDEFFGKGVSTCATCDGFFYKNKEVAVLGGGDTALEEALYLANICSKIYLIHRRDEFRAAPSTVEKVKKNEKIELITSASVDEVYGDKMGVAGVKVKLKDGSIRDLNVPGIFTFVGLNVRNEILKQDDSKFLCNMEEGGQVSVDLKMQTSVAGLFAAGDLRKDAPKQVICAAGDGAVAALSAMAYIESLH | not failed
MLEAPLLSICIPAYNRPNWLQRGLESIAVGEGSDIEIVITDDSDTDQGQAIASEVLKNWSGSWCYEHHQQPLGMAQNWNRAIQWATGQYVMVLHDDDFFLPQGLGLLVNKLRQLGSSSPVLLFGVRVVDAQERVVKRQGFRQDKLLPPHDALIRLFSDSSFVRFPAMVIRRDLFTEVGYFNPDWREPCDLEMWMRLFARYGVYCCREATVAYRVHGQALTMGSFHGETVNILLRLFGELEKLNILTTRDIEFCKGLFFHQYILAGAWRQLRRRRWREFKQVMGLFDLPELKSLSCPVKWRFLRGLFSLTLEHHHHHH | failed
MLEGESAPEPVIEISKLELTDYVKCNLPPEVIKYYESELELLTQEIKSEKKNPAFAYCRRGAIYRKLGKLQSAMNDLQETIFVEPLFLNAYWHRHFIYLFQDKINDALDDLNFITKYNKNHAEAYLSKAEIFREKNDITLAILNYSQAIKCRPKDASLYFKRGEMYEKTNKVLAIDDFSKGLDQAVTHVTESAQIFPPLLGQNDCIYYDPKRSDALWKRGMFYFENENWTGAVYDFTSLLKLEPHNSQARTNRGRAYFKRNLFKQATEDFSAAIHSDPNNWLALYYRACLFRKCSPQRALQDYSVSVSVSVLCSPGFKLFIYKVNGMSEFTTSFHEFVNCDCHVLINDGYDNLNCFLHRGILYTELKFWMLAVCDFETVVTLERIKAIISSRGQYLLMMKSYDLAKLTIFQVAEMNKGVIELSPIQEALIYSFCENHDKAIHVLEGVIANKPDISTYALLAKAQMKAKRIKESVRLFKKALELYTFSDKGPAATSVSADCLYNLGLCYMEEGNFQMNYKLAITDLTTAVGMDKNSYTAFYNRALCYTKIKKHEMALRDYGIVLLLQAGETIALNTLVNRGLIYTELEQYGFALEDFKEASMISETSVKLCQATAMCHHRIKEFQGAVEFFTRAIKINPRYLDAYIGRGNSYMEYEQNKAMIQAQKDFLRALHLDPSNLKARISLGYNLQAQGKFQKAWQHFTIGIEANPKNYLAYEGRAVVCLQMSNYFAAMQDINCAIKINSTAEFLTNRGVIHEFMGQQQNAMADYQAAISLDPNYSLAYFNAGNIYLHHRQFSQATDYFSTALKLNPENECALMNRAVTNSVLKKYEEAEKDFSHAMELCPHWAALYFNRASFYVYLKKYELAEEDLDRALSLKPDDAIMYNLRAQVRGKIGLIEEAMCDYNQALDLEEYSKAM | failed
MLEHFRAGWAKVMNPIADALLRAHVTPDVVTWIGTIGAVLMALICFPQGWLWQGPWLVTLFIFSDSLDGNMARKLGRHSQWGSFLDSTLDRFGDAAIFTGVALYFAGPGNSVLWTAMACAALVFGMATSYVRAKAESLALEAKVGIATRADRLLVSLVAIEITGLARVGAFPHWCVVALPIALCYLTLAGAITVVQRMVAVRRACES | failed
MLEKELSFADLSISLSELYEAMGYADAVPDEAVEKEVRGVLGRVEAVTSPRFCFFISGGELDESKDSLSVGDTCFSIGKIITRQLRGSESFAFFAATAGTGFERFQHTLQQEGDMVKVYIADAIGSVIAEKTADCMEIALDEYIRDRGWRHTNRFSPGYCGWHVSEQKKLFPLFPSAEPCGIRLTDSGLMLPIKSVSGVIGLGDGVRKLEYTCGLCTYDRCYRRKQRGLEHHHHHH | not failed
MLEKLIERVLFATRWLLAPLCIAMSLVLVVLGYVFMKELWHMLSHLNTISETDLVLSALGLVDLLFMAGLVLMVLLASYESFVSKLDKVDASEITWLKHTDFNALKLKVSLSIVAISAIFLLKRYMSLEDVLSSIPKDTPLSHNPIFWQVVIHLVFVCSALLAAVTNNIAFSQNKAH | failed
